Test results taken from patent US20170007671A1.

Molecular target: Neuregulin-1 receptors (ErbB3 or ErbB4) on MCF-7 human breast cancer cells
Test: cell-based or functional assay

Biological activity; ErbB2 phosphorylation ELISA on MCF-7 cell lysates; Reference Sample (0 g/L HSA): 1500 U | Biological activity; ErbB2 phosphorylation ELISA on MCF-7 cell lysates; Sample A (0.5 g/L HSA): 1730 U | Biological activity; ErbB2 phosphorylation ELISA on MCF-7 cell lysates; Sample B (2 g/L HSA): 3500 U | Biological activity; ErbB2 phosphorylation ELISA on MCF-7 cell lysates; Sample C (8 g/L HSA): 4000 U | EC50 value; ErbB2 phosphorylation ELISA on MCF-7 cell lysates; Reference Sample (0 g/L HSA): 0.0505 | EC50 value; ErbB2 phosphorylation ELISA on MCF-7 cell lysates; Sample A (0.5 g/L HSA): 0.0439 | EC50 value; ErbB2 phosphorylation ELISA on MCF-7 cell lysates; Sample B (2 g/L HSA): 0.0217 | EC50 value; ErbB2 phosphorylation ELISA on MCF-7 cell lysates; Sample C (8 g/L HSA): 0.0189 | OD50 value; ErbB2 phosphorylation ELISA on MCF-7 cell lysates; Reference Sample (0 g/L HSA): 0.391 OD | OD50 value; ErbB2 phosphorylation ELISA on MCF-7 cell lysates; Sample A (0.5 g/L HSA): 0.393 OD | OD50 value; ErbB2 phosphorylation ELISA on MCF-7 cell lysates; Sample B (2 g/L HSA): 0.406 OD | OD50 value; ErbB2 phosphorylation ELISA on MCF-7 cell lysates; Sample C (8 g/L HSA): 0.424 OD | Standard sample EC50/sample EC50; ErbB2 phosphorylation ELISA on MCF-7 cell lysates; Sample A (0.5 g/L HSA) against Reference Sample: 1.15 | Standard sample EC50/sample EC50; ErbB2 phosphorylation ELISA on MCF-7 cell lysates; Sample B (2 g/L HSA) against Reference Sample: 2.33 | Standard sample EC50/sample EC50; ErbB2 phosphorylation ELISA on MCF-7 cell lysates; Sample C (8 g/L HSA) against Reference Sample: 2.67 | specific activity; ErbB2 phosphorylation ELISA on MCF-7 cell lysates; Reference Sample (0 g/L HSA): 6000 U/mg | specific activity; ErbB2 phosphorylation ELISA on MCF-7 cell lysates; Sample A (0.5 g/L HSA): 6900 U/mg | specific activity; ErbB2 phosphorylation ELISA on MCF-7 cell lysates; Sample B (2 g/L HSA): 14000 U/mg | specific activity; ErbB2 phosphorylation ELISA on MCF-7 cell lysates; Sample C (8 g/L HSA): 16000 U/mg
B1: recombinant human Neuregulin-1 (rhNRG-1) (ligand)
chain: SHLVKCAEKEKTFCVNGGECFMVKDLSNPSRYLCKCPNEFTGDRCQNYVMASFYKAEELYQ
